In paper PMC4443670, “The C-terminal region of the motor protein MCAK controls its structure and activity through a conformational switch” (eLife, 2015):
Positions count from the first letter of the chain named. In names and notes the source's numbering stands.

B1: GST-CT_(I718A) domain (domain or fragment, human, UniProt Q99661 700-725, looked up)
chain: VIKALRLAMQLEEQASRQASSKKRPQ
notes: MCAK (Kif2c) CT domain, human, residues 700-725 as stated (the printed primers of the parent encode 701-725); source: E. coli BL21(DE3) Codon plus, purified (glutathione-sepharose, gel filtration)
B2: GST-CT_(S715A) domain (domain or fragment, human, UniProt Q99661 700-725, looked up)
chain: VIKALRLAMQLEEQAARQISSKKRPQ
notes: as for B1
B3: His-MCAK (1-725), full-length MCAK (natural protein, human, UniProt Q99661 1-725, looked up)
chain: MAMDSSLQARLFPGLAIKIQRSNGLIHSANVRTVNLEKSCVSVEWAEGGATKGKEIDFDDVAAINPELLQLLPLHPKDNLPLQENVTIQKQKRRSVNSKIPAPKESLRSRSTRMSTVSELRITAQENDMEVELPAAANSRKQFSVPPAPTRPSCPAVAEIPLRMVSEEMEEQVHSIRGSSSANPVNSVRRKSCLVKEVEKMKNKREEKKAQNSEMRMKRAQEYDSSFPNWEFARMIKEFRATLECHPLTMTDPIEEHRICVCVRKRPLNKQELAKKEIDVISIPSKCLLLVHEPKLKVDLTKYLENQAFCFDFAFDETASNEVVYRFTARPLVQTIFEGGKATCFAYGQTGSGKTHTMGGDLSGKAQNASKGIYAMASRDVFLLKNQPCYRKLGLEVYVTFFEIYNGKLFDLLNKKAKLRVLEDGKQQVQVVGLQEHLVNSADDVIKMIDMGSACRTSGQTFANSNSSRSHACFQIILRAKGRMHGKFSLVDLAGNERGADTSSADRQTRMEGAEINKSLLALKECIRALGQNKAHTPFRESKLTQVLRDSFIGENSRTCMIATISPGISSCEYTLNTLRYADRVKELSPHSGPSGEQLIQMETEEMEACSNGALIPGNLSKEEEELSSQMSSFNEAMTQIRELEEKAMEELKEIIQQGPDWLELSEMTEQPDYDLETFVNKAESALAQQAKHFSALRDVIKALRLAMQLEEQASRQISSKKRPQ
notes: MCAK (Kif2c), human, residues 1-725, full length; Cloned in the pFL vector; also called wild type MCAK; Kif2c; source: Sf9 (baculovirus), purified
B4: His-MCAK_(S715E), full length (natural protein, human, UniProt Q99661 1-725, looked up)
chain: B3 chain with S715E
notes: MCAK (Kif2c), human, residues 1-725, full length; also called full-length MCAK_(S715E); source: Sf9 (baculovirus), purified
B5: His-MCAK_(E712C), full length (natural protein, human, UniProt Q99661 1-725, looked up)
chain: B3 chain with E712C
notes: MCAK (Kif2c), human, residues 1-725, full length; Without DTT a disulphide between Cys712 and Cys287 is intended; also called full-length MCAK_(E712C); source: Sf9 (baculovirus), purified
B6: GST-CT_(R716A) domain (domain or fragment, human, UniProt Q99661 700-725, looked up)
chain: VIKALRLAMQLEEQASAQISSKKRPQ
notes: as for B1
B7: MCAK C-terminal tail (CT) domain, GST cleaved and removed (peptide, UniProt Q99661 700-725, looked up)
chain: VIKALRLAMQLEEQASRQISSKKRPQ
notes: MCAK (Kif2c) C-terminal tail (CT domain), human, residues 700-725 as stated; also called free CT domain; C terminus; source: E. coli BL21(DE3) Codon plus, purified as GST fusion, GST cleaved with GST-3C protease and removed
B8: GST-CT_(E712C) domain (domain or fragment, human, UniProt Q99661 700-725, looked up)
chain: VIKALRLAMQLECQASRQISSKKRPQ
notes: MCAK (Kif2c) CT domain, human, residues 700-725 as stated (the printed primers of the parent encode 701-725); Designed to form a disulphide bridge with Cys287 of the motor domain without DTT; source: E. coli BL21(DE3) Codon plus, purified (glutathione-sepharose, gel filtration)

Legend:
[1] = target: T1, His-MCAK motor region with the neck linker region (M) (human, UniProt Q99661 183-583); experiment: pull-down; resin-based binding assay: GST-CT or GST-CT point mutants (GST as a control) on glutathione agarose beads; purified His-M, His-NM or cleaved CT domain added; Coomassie-stained gel; details: both partners purified
T1 construct: MCAK (Kif2c), human, neck linker region and motor region; the methods state residues 183-583, the results state 181-583; Cloned in pET3aTr; also called motor domain; MCAK motor domain; source: E. coli BL21(DE3) Codon plus, purified (Ni-NTA, gel filtration)

[2] = target: the molecule itself; experiment: SEC; gel filtration of full-length MCAK proteins alone; elution compared with wild type full-length MCAK
[3] = target: T1, His-MCAK motor region with the neck …; experiment: SEC-MALS; motor domain with CT domain; Superdex 200 10/300 GL; 2 mg/ml in 100 mM HEPES, pH 7.2, 150 mM NaCl; details: both partners purified
[4] = target: B4; experiment: co-sedimentation; competition: 100 nM full-length MCAK_(S715E) with 2 μM taxol-stabilized microtubules and increasing concentration of cleaved free CT domain; western blot; details: both partners purified
[5] = target: T1, His-MCAK motor region with the neck …; experiment: other fluorescence titration; intrinsic tryptophan/aromatic fluorescence (excitation 295 and 280 nm) of 1 μM motor domain, CT domain titrated 0 to 15,660 nM; 25°C; 100 mM HEPES, pH 7.4, 150 mM NaCl; motor pre-treated with EDTA to remove ADP; details: both partners purified
[6] = target: T1, His-MCAK motor region with the neck …; experiment: SEC; analytical gel filtration of the motor with GST-CT_(E712C) under oxidizing conditions; fractions on Coomassie-stained SDS-PAGE; details: both partners purified

Row | Binder | binding result [1] | binding result [2] | other results
1 | B1 | binds |  | 
2 | B2 | binds |  | 
3 | B3 |  | binds | 
4 | B4 |  | binds | 
5 | B5 |  | binds | 
6 | B6 | binds |  | 
7 | B7 |  |  | stoichiometry N [3]: 0.5 CT domain per motor domain; binding result [4]: binds; Kd [5]: ~1100 nM
8 | B8 |  |  | stoichiometry N [6]: 0.5 CT domain per motor
